In patent US20070224196A1 (ELUSYS THERAPEUTICS, published 2007):
Numbering of substitutions follows the chain as printed.

B1: E DI VH4/VL2 (antibody, V domains shown)
VH: DVQLQESGPGLVKPSQTLSLTCTVSGYSITSDYAWNWIRQFPGKGLEWIGYISYSGSTSYHPSLKSRISISRDTSKNQFFLQMNSVTTEDTATYYCTTIINYDKYDWYFDVWGQGTTVTVSS
VL: DIVLTQSPASLVVSVRQRATISCRASQSVRTSSYSYIHWYQQKPGQPPKLLIKYASSLESGVPARFSGSGSGTDFTLNISPVEEEDTATYYCQHSWEIPWTFGPGTTVEIK
notes: also called E DI V4/VL2
B2: E DI VH2/VL1 44H1 (antibody, V domains shown)
VH: B1 VH with I29M, L64V, S69T
VL: B1 VL with K53Y, T107K
notes: also called immunogenicity-reduced Ab VH2/VL1
B3: E DI VH5/VL1 (antibody, V domains shown)
VH: B1 VH with S25T, I49M
VL: B1 VL with K53Y, T107K
notes: also called immunogenicity-reduced Ab VH5/VL1
B4: E DI VH1/VL2 (antibody, V domains shown)
VH: B1 VH with I29M, S59T, L64V, S69T, Y94T, V111Y
VL: B1 VL
B5: E DI VH3/VL2 15A12 (antibody, V domains shown)
VH: B1 VH with I29M
VL: B1 VL
notes: also called immunogenicity-reduced Ab VH3/VL2
B6: E DI VH3/VL1 12H10 (antibody, V domains shown)
VH: B1 VH with I29M
VL: B1 VL with K53Y, T107K
notes: also called immunogenicity-reduced Ab VH3/VL1

Experiments:
[1] = target: T1, human erythrocyte complement receptor 1 (CR1) (human, UniProt P17927 42-2039); assay: erythrocyte binding assay (FIGS. 10-13)
T1 construct: whole, on cells; also called C3b receptor; CD35

[2] = target: T1, human erythrocyte complement receptor 1 …; assay: erythrocyte binding assay, antibody with RBCs in solution, A405 read-out

T1 sequence (P17927 42-2039): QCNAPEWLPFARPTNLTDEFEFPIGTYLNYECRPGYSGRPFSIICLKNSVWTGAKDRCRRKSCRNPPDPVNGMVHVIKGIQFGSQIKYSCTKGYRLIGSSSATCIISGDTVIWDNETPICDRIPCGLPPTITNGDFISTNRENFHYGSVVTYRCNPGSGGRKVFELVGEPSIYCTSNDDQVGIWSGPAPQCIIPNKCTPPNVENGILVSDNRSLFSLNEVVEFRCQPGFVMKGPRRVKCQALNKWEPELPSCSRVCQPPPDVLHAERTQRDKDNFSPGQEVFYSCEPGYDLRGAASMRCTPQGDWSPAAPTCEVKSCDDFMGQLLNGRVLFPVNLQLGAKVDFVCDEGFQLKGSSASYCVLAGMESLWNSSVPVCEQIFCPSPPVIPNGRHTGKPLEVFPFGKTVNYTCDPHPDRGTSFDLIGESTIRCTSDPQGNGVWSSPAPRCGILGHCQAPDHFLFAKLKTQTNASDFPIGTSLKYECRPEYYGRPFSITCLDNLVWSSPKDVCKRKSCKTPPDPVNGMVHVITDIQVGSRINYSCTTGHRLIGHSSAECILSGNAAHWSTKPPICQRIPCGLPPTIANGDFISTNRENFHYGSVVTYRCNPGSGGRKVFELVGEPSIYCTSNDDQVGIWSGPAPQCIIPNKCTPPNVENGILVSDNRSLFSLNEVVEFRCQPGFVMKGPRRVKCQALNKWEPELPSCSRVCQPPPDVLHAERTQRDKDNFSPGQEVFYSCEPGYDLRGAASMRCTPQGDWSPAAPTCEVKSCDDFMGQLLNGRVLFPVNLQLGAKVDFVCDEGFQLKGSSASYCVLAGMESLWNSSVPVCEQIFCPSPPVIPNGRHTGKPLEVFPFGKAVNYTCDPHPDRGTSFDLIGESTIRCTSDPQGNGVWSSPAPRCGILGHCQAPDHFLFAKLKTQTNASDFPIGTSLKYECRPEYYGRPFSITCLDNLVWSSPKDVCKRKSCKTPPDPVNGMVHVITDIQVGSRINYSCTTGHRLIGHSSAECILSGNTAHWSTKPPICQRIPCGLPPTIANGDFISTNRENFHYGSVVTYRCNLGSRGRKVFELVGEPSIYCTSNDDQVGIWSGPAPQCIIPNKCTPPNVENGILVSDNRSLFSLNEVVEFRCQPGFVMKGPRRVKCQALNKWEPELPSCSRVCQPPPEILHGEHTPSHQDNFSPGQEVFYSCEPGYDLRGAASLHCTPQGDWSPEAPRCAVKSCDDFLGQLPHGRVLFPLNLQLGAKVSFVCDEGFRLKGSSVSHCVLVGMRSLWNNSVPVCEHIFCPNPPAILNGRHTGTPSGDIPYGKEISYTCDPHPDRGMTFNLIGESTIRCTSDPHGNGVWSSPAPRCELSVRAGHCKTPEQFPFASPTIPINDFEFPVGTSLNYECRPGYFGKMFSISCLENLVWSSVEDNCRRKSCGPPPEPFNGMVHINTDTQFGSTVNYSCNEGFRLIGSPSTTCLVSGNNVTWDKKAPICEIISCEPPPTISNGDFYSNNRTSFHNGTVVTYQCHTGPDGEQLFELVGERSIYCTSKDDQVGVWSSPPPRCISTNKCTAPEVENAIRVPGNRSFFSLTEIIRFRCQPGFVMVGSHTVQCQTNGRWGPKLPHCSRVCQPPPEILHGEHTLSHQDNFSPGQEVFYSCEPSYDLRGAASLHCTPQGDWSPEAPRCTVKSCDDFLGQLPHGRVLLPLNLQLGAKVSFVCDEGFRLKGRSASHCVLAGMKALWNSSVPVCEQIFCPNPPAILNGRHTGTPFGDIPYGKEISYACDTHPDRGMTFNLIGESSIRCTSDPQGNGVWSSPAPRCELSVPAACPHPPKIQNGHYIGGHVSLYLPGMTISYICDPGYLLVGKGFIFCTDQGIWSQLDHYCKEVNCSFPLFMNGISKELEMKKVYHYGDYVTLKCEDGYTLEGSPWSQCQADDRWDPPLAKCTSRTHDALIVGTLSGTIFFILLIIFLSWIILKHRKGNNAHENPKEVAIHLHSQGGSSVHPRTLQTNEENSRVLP

| Binder | fold reduction of binding compared to the chimeric antibody [1] [fold] | ng of antibody at A405 0.4 [2] [ng] |
| --- | --- | --- |
| B1 | ~10 | 30 |
| B2 | ~2 | 12 |
| B3 |  | 2 |
| B4 | ~10 | 9 |
| B5 | ~10 |  |
| B6 |  | 4 |
